Biological target: Human type 1 atelo-collagen (UniProt P02452)
Sequence (P02452 179-1192, chain 1 of 2): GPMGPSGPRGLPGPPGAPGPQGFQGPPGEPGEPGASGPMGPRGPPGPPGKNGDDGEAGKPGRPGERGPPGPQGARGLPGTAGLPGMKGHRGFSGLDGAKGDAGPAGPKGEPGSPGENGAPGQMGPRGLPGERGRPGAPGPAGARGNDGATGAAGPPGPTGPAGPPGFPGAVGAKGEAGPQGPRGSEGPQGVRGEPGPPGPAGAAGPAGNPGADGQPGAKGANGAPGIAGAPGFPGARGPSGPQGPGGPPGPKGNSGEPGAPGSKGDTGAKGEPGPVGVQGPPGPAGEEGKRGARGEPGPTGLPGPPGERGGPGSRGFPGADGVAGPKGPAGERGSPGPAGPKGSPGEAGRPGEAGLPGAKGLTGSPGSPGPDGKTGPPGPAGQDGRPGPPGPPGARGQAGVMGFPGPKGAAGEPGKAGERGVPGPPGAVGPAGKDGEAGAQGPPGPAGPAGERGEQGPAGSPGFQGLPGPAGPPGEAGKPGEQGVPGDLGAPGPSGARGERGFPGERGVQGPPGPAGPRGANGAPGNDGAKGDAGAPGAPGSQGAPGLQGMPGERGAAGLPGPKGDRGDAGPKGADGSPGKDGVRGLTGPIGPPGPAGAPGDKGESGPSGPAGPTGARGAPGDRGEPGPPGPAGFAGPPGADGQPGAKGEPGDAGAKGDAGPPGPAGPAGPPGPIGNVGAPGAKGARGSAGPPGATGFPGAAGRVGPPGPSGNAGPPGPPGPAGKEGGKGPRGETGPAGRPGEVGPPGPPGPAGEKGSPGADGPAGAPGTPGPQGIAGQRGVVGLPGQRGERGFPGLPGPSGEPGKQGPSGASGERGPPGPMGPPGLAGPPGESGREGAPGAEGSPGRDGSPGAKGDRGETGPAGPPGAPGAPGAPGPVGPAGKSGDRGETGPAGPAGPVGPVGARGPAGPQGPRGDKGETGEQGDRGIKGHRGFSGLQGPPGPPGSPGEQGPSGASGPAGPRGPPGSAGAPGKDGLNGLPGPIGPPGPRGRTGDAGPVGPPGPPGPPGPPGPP
Sequence (chain, as listed by the source, chain 2 of 2): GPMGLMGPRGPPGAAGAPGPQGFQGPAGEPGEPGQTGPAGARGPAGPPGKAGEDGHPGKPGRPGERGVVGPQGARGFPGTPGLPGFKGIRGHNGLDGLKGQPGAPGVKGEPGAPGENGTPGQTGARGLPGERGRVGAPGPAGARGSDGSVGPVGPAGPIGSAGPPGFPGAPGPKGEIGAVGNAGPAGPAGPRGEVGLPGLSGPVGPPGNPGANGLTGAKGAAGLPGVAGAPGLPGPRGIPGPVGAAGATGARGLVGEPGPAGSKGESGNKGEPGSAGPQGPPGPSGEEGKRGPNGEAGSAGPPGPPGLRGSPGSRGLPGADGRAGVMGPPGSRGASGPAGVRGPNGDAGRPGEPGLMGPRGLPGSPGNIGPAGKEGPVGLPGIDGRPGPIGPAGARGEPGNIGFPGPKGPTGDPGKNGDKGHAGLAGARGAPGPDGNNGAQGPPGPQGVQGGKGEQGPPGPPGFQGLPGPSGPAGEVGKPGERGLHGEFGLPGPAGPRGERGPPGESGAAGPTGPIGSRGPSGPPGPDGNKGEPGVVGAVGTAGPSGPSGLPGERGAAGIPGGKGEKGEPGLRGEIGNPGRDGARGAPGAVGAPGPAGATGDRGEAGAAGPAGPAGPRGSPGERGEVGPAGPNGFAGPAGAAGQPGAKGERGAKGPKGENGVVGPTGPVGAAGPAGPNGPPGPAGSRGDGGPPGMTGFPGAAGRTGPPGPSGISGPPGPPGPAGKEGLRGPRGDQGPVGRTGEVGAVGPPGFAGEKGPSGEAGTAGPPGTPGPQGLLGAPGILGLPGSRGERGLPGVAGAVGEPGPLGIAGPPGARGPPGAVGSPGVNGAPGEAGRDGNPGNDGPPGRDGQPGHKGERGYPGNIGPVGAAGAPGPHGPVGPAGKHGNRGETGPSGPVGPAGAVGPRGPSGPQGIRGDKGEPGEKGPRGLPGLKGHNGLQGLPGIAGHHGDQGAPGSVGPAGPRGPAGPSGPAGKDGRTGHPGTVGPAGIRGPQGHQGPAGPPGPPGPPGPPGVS

matrix metalloproteinase-1 (MMP-1), activated with 2 mM APMA
reduction in the full length alpha1(I) and alpha2(I) chains (SDS-PAGE, band quantitation): an approximately 7.4-fold (over 80%) reduction in the full length of these chains when collagen was treated with MMP-1

From patent publication US20230048200
